Measured values from paper PMC6213480, “A Novel Cold-Adapted Leucine Dehydrogenase from Antarctic Sea-Ice Bacterium Pseudoalteromonas sp. ANT178” (Marine Drugs, 2018).

Tests used:
Assay in all cases: purified protein
Assay type in all cases: biochemical, Pseudoalteromonas sp. ANT178
Conditions in all cases: oxidative deamination with NAD+, standard assay 0.1 M glycine-NaOH pH 10.4, 1 mM NAD+, 30 °C
N=C(N)NCCC[C@H](N)C(=O)O = test system: N=C(N)NCCC[C@H](N)C(=O)O
CC(C)C[C@H](N)C(=O)O = test system: CC(C)C[C@H](N)C(=O)O
[1] = test system: N[C@@H](Cc1ccc(O)cc1)C(=O)O
CSCCC(N)C(=O)O = test system: CSCCC(N)C(=O)O

Substance rPsLeuDH (Pseudoalteromonas sp.) has a Km (N=C(N)NCCC[C@H](N)C(=O)O) of 840 µM, a Vmax (N=C(N)NCCC[C@H](N)C(=O)O) of 7.13 µmol/min/mg and a kcat (N=C(N)NCCC[C@H](N)C(=O)O) of 14.1 s⁻¹. The kcat/Km (N=C(N)NCCC[C@H](N)C(=O)O) was 16800 M⁻¹ s⁻¹, the Km (CC(C)C[C@H](N)C(=O)O) was 330 µM and the Vmax (CC(C)C[C@H](N)C(=O)O) was 15.2 µmol/min/mg. It also gave a kcat (CC(C)C[C@H](N)C(=O)O) of 30.1 s⁻¹, a kcat/Km (CC(C)C[C@H](N)C(=O)O) of 91300 M⁻¹ s⁻¹ and a Km [1] of 480 µM. For the same substance, the Vmax [1] was 13.3 µmol/min/mg, the kcat [1] was 26.4 s⁻¹ and the kcat/Km [1] was 55000 M⁻¹ s⁻¹. The Km (CSCCC(N)C(=O)O) was 750 µM, the Vmax (CSCCC(N)C(=O)O) was 8.38 µmol/min/mg and the kcat (CSCCC(N)C(=O)O) was 16.6 s⁻¹. The kcat/Km (CSCCC(N)C(=O)O) was 22100 M⁻¹ s⁻¹.
